Reference: paper PMC11250841

How the values were obtained:
[1] = molecular target: T1, Thymic stromal lymphopoietin receptor (TSLPR) (human (endogenous in primary keratinocytes)) (UniProt Q9HC73)
T1 sequence: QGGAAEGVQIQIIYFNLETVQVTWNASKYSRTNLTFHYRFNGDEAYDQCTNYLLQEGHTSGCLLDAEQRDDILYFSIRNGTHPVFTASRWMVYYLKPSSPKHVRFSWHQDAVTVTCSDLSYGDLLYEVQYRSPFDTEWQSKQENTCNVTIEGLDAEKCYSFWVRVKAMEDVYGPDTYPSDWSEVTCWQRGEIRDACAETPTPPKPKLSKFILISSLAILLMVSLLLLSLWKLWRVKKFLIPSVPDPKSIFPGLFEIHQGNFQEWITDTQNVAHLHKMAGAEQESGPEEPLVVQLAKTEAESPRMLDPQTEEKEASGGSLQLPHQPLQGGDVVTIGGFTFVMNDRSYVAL

[2] = molecular target: T1, Thymic stromal lymphopoietin receptor (TSLPR) (human (endogenous in primary keratinocytes)); remark: listed apart in the source

Thymic stromal lymphopoietin (TSLP), human recombinant (from UniProt Q969D9 29-159) (ligand)
inhibition by the small molecule BP79 of TSLP-induced IL-4/IL-13 expression in primary human CD4+ T cells (ELISA, 36 h), dose-response, at 10 µM and 20 µM [1]: > 80%
inhibition by the small molecule BP79 of TSLP-induced IL-4 release from HuT78 cells (ELISA, 36 h), concentration series up to 20 µM [2]: 60%
inhibition by the small molecule BP79 of TSLP-induced IL-13 release from HuT78 cells (ELISA, 36 h), concentration series up to 20 µM [2]: 80%
